# From paper PMC8533099, “Kinetic Analysis of the Interaction of Nicking Endonuclease BspD6I with DNA”
# T1: Nt.BspD6I (UniProt A3FEV7 1-604)
# T1 sequence: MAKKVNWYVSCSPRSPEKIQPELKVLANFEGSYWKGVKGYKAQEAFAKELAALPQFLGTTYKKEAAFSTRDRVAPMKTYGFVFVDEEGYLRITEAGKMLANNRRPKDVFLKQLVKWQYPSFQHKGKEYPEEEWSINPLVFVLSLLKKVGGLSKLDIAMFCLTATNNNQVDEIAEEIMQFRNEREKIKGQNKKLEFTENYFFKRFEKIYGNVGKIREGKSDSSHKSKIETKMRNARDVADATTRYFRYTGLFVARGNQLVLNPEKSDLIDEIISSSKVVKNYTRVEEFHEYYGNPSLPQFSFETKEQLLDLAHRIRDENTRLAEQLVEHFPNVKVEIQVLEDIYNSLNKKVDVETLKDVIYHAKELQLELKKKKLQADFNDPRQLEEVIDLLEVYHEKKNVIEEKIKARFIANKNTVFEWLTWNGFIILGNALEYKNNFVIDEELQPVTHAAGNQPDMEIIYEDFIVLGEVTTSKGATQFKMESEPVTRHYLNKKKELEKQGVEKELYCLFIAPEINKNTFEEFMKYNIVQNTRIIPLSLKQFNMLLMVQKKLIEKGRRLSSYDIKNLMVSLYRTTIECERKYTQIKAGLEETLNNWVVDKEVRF
# B1: I-17 (dsDNA)
# DNA 1: GGTCTCGAGTCTTCTCA
# DNA 2: TGAGAAGACTCGAGACC
# B2: IV-23 (dsDNA)
# DNA 1: GGTCTCGAGTCTTCTCAAGGTAC
# DNA 2: GTACCTTGAGAAGACTCGAGACC
# B3: VI-30 (dsDNA)
# DNA 1: GCGTGGTCTCGAGTCTTCTCAAGGTACCTG
# DNA 2: CAGGTACCTTGAGAAGACTCGAGACCACGC
# B4: II-19 (dsDNA)
# DNA 1: GGTCTCGAGTCTTCTCAAG
# DNA 2: CTTGAGAAGACTCGAGACC
# B5: V-26 (dsDNA)
# DNA 1: CGTGGTCTCGAGTCTTCTCAAGGTAC
# DNA 2: GTACCTTGAGAAGACTCGAGACCACG
# B6: III-21 (dsDNA)
# DNA 1: GGTCTCGAGTCTTCTCAAGGT
# DNA 2: ACCTTGAGAAGACTCGAGACC
# B7: VI-30N (dsDNA)
# DNA 1: GTATGAAGCTAGAGCCAGGTTGGCAGCATC
# DNA 2: GATGCTGCCAACCTGGCTCTAGCTTCATAC
# What was measured:
# Conditions in all cases: blunt
# Nt.BspD6I [1] = molecular target: T1, Nt.BspD6I; assay: stopped-flow Trp fluorescence; 10 mM Mg2+; kobs k1 490 s-1, k2 128 s-1; Stopped-flow, 37 °C, 10 mM CaCl2 or 10 mM MgCl2 (or 0.4 mM EDTA without divalent metal); 1 µM enzyme (Trp) or 1 µM DNA (FRET); buffer, salt and pH not in the supplied text
# Nt.BspD6I [2] = molecular target: T1, Nt.BspD6I; assay: stopped-flow Trp fluorescence; 10 mM Mg2+; kobs k1 145 s-1, k2 10.0 s-1; Stopped-flow, 37 °C, 10 mM CaCl2 or 10 mM MgCl2 (or 0.4 mM EDTA without divalent metal); 1 µM enzyme (Trp) or 1 µM DNA (FRET); buffer, salt and pH not in the supplied text
# Nt.BspD6I [3] = molecular target: T1, Nt.BspD6I; assay: stopped-flow Trp fluorescence; 0.4 mM EDTA, no divalent metal; Stopped-flow, 37 °C, 10 mM CaCl2 or 10 mM MgCl2 (or 0.4 mM EDTA without divalent metal); 1 µM enzyme (Trp) or 1 µM DNA (FRET); buffer, salt and pH not in the supplied text
# Nt.BspD6I [4] = molecular target: T1, Nt.BspD6I; assay: stopped-flow Trp fluorescence; 10 mM Ca2+; kobs k1 261 s-1, k2 6.2 s-1; Stopped-flow, 37 °C, 10 mM CaCl2 or 10 mM MgCl2 (or 0.4 mM EDTA without divalent metal); 1 µM enzyme (Trp) or 1 µM DNA (FRET); buffer, salt and pH not in the supplied text
# Nt.BspD6I [5] = molecular target: T1, Nt.BspD6I; assay: stopped-flow Trp fluorescence; 10 mM Mg2+; kobs k1 126 s-1, k2 7.0 s-1; Stopped-flow, 37 °C, 10 mM CaCl2 or 10 mM MgCl2 (or 0.4 mM EDTA without divalent metal); 1 µM enzyme (Trp) or 1 µM DNA (FRET); buffer, salt and pH not in the supplied text
# Nt.BspD6I [6] = molecular target: T1, Nt.BspD6I; assay: stopped-flow Trp fluorescence; 10 mM Mg2+; kobs k1 232 s-1, k2 21 s-1; Stopped-flow, 37 °C, 10 mM CaCl2 or 10 mM MgCl2 (or 0.4 mM EDTA without divalent metal); 1 µM enzyme (Trp) or 1 µM DNA (FRET); buffer, salt and pH not in the supplied text
# Nt.BspD6I [7] = molecular target: T1, Nt.BspD6I; assay: stopped-flow Trp fluorescence; 10 mM Ca2+; Stopped-flow, 37 °C, 10 mM CaCl2 or 10 mM MgCl2 (or 0.4 mM EDTA without divalent metal); 1 µM enzyme (Trp) or 1 µM DNA (FRET); buffer, salt and pH not in the supplied text
# Nt.BspD6I [8] = molecular target: T1, Nt.BspD6I; assay: stopped-flow Trp fluorescence; 10 mM Mg2+; Stopped-flow, 37 °C, 10 mM CaCl2 or 10 mM MgCl2 (or 0.4 mM EDTA without divalent metal); 1 µM enzyme (Trp) or 1 µM DNA (FRET); buffer, salt and pH not in the supplied text
binder,measurement,setting,value
B1,binding result,Nt.BspD6I [1],binds
B2,binding result,Nt.BspD6I [2],binds
B3,Kd,Nt.BspD6I [3],0.013 ± 0.003 µM
B4,binding result,Nt.BspD6I [4],binds
B5,binding result,Nt.BspD6I [5],binds
B6,binding result,Nt.BspD6I [6],binds
B7,Kd,Nt.BspD6I [7],0.06 ± 0.02 µM
same,Kd,Nt.BspD6I [8],0.07 ± 0.02 µM
